Assay [1] addresses T1, human CEACAM5 on tumor cells (LOVO, LS174T, KATO3) (human, UniProt P06731 35-685).
T1 construct: whole, on cells; also called LOVO cells; LS174T cells
T1 sequence (looked up): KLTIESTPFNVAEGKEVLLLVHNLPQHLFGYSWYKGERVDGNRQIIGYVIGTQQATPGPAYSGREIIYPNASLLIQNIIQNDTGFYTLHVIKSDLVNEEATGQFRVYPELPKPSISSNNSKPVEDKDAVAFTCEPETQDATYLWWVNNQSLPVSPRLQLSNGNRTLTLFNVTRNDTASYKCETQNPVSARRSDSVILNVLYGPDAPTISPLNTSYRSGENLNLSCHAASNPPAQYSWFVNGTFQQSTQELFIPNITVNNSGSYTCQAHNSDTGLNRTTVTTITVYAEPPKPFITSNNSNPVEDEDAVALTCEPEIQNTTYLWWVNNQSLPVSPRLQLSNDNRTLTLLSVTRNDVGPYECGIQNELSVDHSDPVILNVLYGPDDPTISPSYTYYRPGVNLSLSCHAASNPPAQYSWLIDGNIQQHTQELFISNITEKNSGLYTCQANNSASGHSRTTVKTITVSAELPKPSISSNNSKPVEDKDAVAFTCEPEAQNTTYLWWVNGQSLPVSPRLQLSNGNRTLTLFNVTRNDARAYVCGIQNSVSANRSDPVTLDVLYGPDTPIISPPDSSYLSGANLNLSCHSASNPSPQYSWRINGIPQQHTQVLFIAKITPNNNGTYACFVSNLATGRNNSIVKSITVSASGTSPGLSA
Put plainly: FACS on LS174T cells. The procedure:
LS174T cells (tumor cells with high expression of CEACAM5) were cultured in RPMI1640 medium containing 10% FBS. After digesting LS174T cells with TrypLE trypsin, the cells were centrifuged and resuspended in DPBS solution (FACS buffer, 4° C.) containing 2% BSA; then, the cells were added at 5×10⁵/100 μL/well to the U-shaped bottom 96-well plate, and a series of dilution solutions of antibody were added to the U-shaped bottom 96-well plate, mixture was incubated at 4° C. for 1 hour. After incubation, the mixture was centrifuged and the resulted supernatant was discarded; 100 μl of secondary antibody (anti-human IgG Fc-APC) was added to each well, and incubated at 4° C. for 1 hour. After incubation, the cells were washed once with FACS buffer, resuspended in 200 μl FACS buffer, and the fluorescence signal value was read in BD C6 plus.
The 47th amino acid (Cys) of the human-mouse chimeric antibody UM05-5L VH was mutated to Trp, and the mutated antibody was named UM05-5L C47W; the 47th amino acid (Trp) of the humanized antibody hUM05-3 VH was mutated to Cys, and the mutated antibody was named hUM05-3 W47C. As described in Example 10, the ability of the antibody binding to LS174T cells was tested.

The target in assay [2] is T2, CEACAM8 overexpressed on CHO cells (UniProt P31997 35-320, limits assumed).
T2 construct: whole, on cells; also called CHO-CEACAM8
T2 sequence (looked up): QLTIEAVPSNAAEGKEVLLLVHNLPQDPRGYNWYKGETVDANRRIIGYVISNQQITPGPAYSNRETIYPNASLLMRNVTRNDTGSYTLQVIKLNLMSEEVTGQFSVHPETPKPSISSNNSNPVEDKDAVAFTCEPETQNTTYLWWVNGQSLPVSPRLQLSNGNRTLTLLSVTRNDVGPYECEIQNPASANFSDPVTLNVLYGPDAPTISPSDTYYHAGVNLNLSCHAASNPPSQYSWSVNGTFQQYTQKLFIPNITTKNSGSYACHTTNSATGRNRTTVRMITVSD
Put plainly: FACS on CHO-CEACAM8 cells. Here is the method: (§1) Flow cytometry (FACS) was used to detect the binding of antibody to LOVO tumor cells naturally expressing human CEACAM5 or cells overexpressing different CEACAM family members. In short, cells were first collected, washed with PBS, counted, and diluted to obtain 2*10⁶/ml cell suspension; 10 μl of an antibody working solution was added to 100 μl of the cell suspension, and incubated at 4° C. for 30 min in the dark; after washing twice with PBS, a corresponding fluorescent-labeled secondary antibody Goat-anti-Human IgG (H+L) (Invitrogen) was added, incubated at 4° C. for 30 min in the dark, after washing twice with PBS, it was suspended in 400 μl of FACS buffer, and the binding profile of the antibody to the cells were detected by FACS.
(§2) The binding profile of the supernatants of the chimeric antibody UM05-5L and the control antibody UM05-8 (anti-CEACAM5 antibody, prepared by the hybridoma method in our laboratory) to different cells at a concentration of 3 μg/mL were detected, in which SW620-CEACAM1 was a cell overexpressing CEACAM1, SW620-CEACAM3 was a cell overexpressing CEACAM3, CHO-CEACAM6 was a cell overexpressing CEACAM6, CHO-CEACAM7 was a cell overexpressing CEACAM7, and CHO-CEACAM8 was a cell overexpressing CEACAM8. […]

Assay [3] concerns the target T3, CEACAM7 overexpressed on CHO cells (UniProt Q14002 36-242, limits assumed).
T3 construct: whole, on cells; also called CHO-CEACAM7
T3 sequence (looked up): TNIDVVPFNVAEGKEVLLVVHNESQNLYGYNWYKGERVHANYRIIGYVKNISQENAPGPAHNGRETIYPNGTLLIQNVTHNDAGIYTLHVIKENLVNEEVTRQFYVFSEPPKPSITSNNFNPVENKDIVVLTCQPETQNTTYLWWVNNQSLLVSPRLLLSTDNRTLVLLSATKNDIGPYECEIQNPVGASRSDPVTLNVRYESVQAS
Put plainly: FACS on CHO-CEACAM7 cells. Here is the method:
as §1, §2

The target of assay [4] is T1, human CEACAM5 on tumor cells (LOVO, …). The experiment in a line: FACS on LOVO tumor cells naturally expressing human CEACAM5. Here is the method:
as §1
Furthermore, we used FACS to detect the EC50 of the chimeric antibody UM05-5L binding to LOVO tumor cells that naturally expressed human CEACAM5. […] Based on the above results, the chimeric antibody UM05-5L had excellent binding affinity, specificity and selectivity to CEACAM5.

In assay [5] the target is T4, CEACAM3 overexpressed on SW620 cells (UniProt P40198 35-252, limits assumed).
T4 construct: whole, on cells; also called SW620-CEACAM3
T4 sequence (looked up): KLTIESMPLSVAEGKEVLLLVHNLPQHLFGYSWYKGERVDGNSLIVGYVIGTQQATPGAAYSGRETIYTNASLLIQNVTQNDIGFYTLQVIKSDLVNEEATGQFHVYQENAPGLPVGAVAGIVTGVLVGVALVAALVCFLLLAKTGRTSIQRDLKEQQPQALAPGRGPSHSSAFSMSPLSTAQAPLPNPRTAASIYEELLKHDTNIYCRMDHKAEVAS
The experiment in a line: FACS on SW620-CEACAM3 cells. The procedure: as §1, §2

Another assay has as its target T5, human CEACAM5 protein (human, UniProt P06731 35-685, limits assumed).
T5 construct: also called CD66e
T5 sequence (looked up): T1 sequence (looked up)
The experiment in a line: ELISA, plate coated with human CEACAM5 protein at 1 µg/mL. The procedure:
On the next day, it was first washed with 300 μL of PBST (Tween20: 0.5% o) for 3 times, then blocked with 100 μL/well of 5% BSA/PBS for 1 hour, and shaken at room temperature. Washing was performed 3 times with 300 μL of PBST. A series of dilution solutions of antibody samples were prepared with PBS, and added at 100 μL/well to the 96-well plate and shaken at room temperature for 1 hour. Washing was performed 3 times with 300 μL of PBST. A secondary antibody goat anti-human IgG HRP solution was prepared, added at 100 μL/well to the 96-well plate, and shaken at room temperature for 30 minutes. Washing was performed 4 times with 300 μL of PBST. 100 μL/well TMB was added to perform color development for 20 min. 100 μL/well of 0.6N H₂SO₄ was added to stop the color development, and OD450nm was detected.

Assay [6] has as its target T6, CEACAM1 overexpressed on SW620 cells (UniProt P13688 35-526, limits assumed).
T6 construct: whole, on cells; also called SW620-CEACAM1
T6 sequence (looked up): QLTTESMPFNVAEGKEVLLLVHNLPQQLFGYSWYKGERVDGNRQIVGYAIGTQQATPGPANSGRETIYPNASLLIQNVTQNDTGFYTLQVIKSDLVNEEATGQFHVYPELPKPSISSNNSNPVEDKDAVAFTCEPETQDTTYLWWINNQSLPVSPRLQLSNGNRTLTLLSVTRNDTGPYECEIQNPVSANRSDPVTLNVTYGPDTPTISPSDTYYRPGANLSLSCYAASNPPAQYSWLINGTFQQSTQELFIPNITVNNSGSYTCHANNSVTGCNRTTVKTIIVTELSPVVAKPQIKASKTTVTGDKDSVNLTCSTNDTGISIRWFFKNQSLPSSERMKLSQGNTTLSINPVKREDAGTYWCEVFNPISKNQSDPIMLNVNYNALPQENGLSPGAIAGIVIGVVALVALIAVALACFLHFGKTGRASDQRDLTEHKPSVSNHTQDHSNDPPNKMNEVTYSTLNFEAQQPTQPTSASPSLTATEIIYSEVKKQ
Put plainly: FACS on SW620-CEACAM1 cells. The procedure: as §1, §2

Assay [7] concerns the target T1, human CEACAM5 on tumor cells (LOVO, …). The experiment in a line: cell-based or functional assay.

Substitutions are numbered along the chain they refer to.

B1: humanized antibody hUM05-3 (antibody, V domains shown)
VH: EVQLVQSGAEVKKPGATVKISCKVSGYTFTDHTMHWMQQAPGQGLEWIGLIYPRDGSTIYNEKFQGRATLTADRSTDTAYMELSSLRSEDTAVYFCARPIYDGYSFDYWGQGTLVTVSS
VL: QIVLTQSPATLSASPGERATLSCRASSSVSYMHWYQQKPGQAPKRWIYDTSNRATGVPARFSGSGSGTDYTLTISSMEPEDAAVYYCQQWTRNPPTFGQGTKLELK
notes: detected with anti-human IgG Fc-APC
Turning to B1, in assay [1], it took 0.53 µg/mL to reach a half-maximal effect (EC50) and the “Emax MFI (Average fluorescence intensity)” value (shortened to “Emax MFI”) came out at 52900 MFI.

B2: hUM05-3 W47C (antibody, V domains shown)
VH: B1 VH with W47C
VL: B1 VL
notes: also called mutated humanized antibody hUM05-3 (VH Trp47 to Cys)
As to B2, in assay [1], a half-maximal effect (EC50) was put at 1.47 µg/mL and the “Emax MFI” value was 34400 MFI.

B3: human-mouse chimeric antibody UM05-5L (antibody, human IgG1, kappa, V domains shown)
VH: QVQLQQSDADLVKPGASVKISCKVSGYTFTDHTIHWMKQRPEQGLECIGYIYPRDGNTKYNEKFKGKATLTADRSSITAYMQLNSLTSEDSAVYFCARPIYDGYSFDYWGQGTTLTVSS
VL: QIVLTQSPAIMSASPGEKVTMTCRASSSVSYMHWYQQKSGTSPKRWIYDTSKLASGVPARFSGSGSGTSYSLTISSMAAEDAATYYCQQWTRNPPTFGAGTKLELKR
notes: expressed in HEK293
As to B3, the binding result in assay [2], in assay [3], in assay [5] and in assay [6] was “no binding (tested: 3 µg/mL)” each time. Besides, the EC50 in assay [4] was 3.17 µg/mL; in the assay with human CEACAM5 protein, 0.105 µg/mL; in assay [1], 0.81 µg/mL. Also, the “Emax MFI” value in assay [1] is 79700 MFI. The “ADCC activity (luciferase in Jurkat/ADC effector cells, LOVO target cells), EC50” value in assay [7] turned out to be 0.85 µg/mL.

B4: UM05-5L C47W (antibody, human IgG1, kappa, V domains shown)
VH: B3 VH with C47W
VL: B3 VL
notes: also called mutated human-mouse chimeric antibody UM05-5L (VH Cys47 to Trp)
Turning to B4, in assay [1], the EC50 turned out to be 2.46 µg/mL and the “Emax MFI” value was 55200 MFI.

The values above are taken from patent publication US20220242968A1 (BIOTHEUS, published 2022).
